Reference: patent US9213031B2, “Use of Cbl as biomarker for identifying subject suitable for treatment with anti-c-Met antibody” (SAMSUNG ELECTRONICS CO., LTD., priority 2012, dated 2015)

B1: L3-1Y (2): contains the same epitope as L3-1Y but has the hIgG2 backbone (antibody)
heavy: EVQLVESGGGLVQPGGSLRLSCAASGFTFTDYYMSWVRQAPGKGLEWLGFIRNKANGYTTEYSASVKGRFTISRDNSKNTLYLQMNSLRAEDTAVYYCARDNWFAYWGQGTLVTVSSASTKGPSVFPLAPCSRSTSESTAALGCLVKDYFPEPVTVSWNSGALTSGVHTFPAVLQSSGLYSLSSVVTVPSSNFGTQTYTCNVDHKPSNTKVDKTVERKCCVECPPCPAPPVAGPSVFLFPPKPKDTLMISRTPEVTCVVVDVSHEDPEVQFNWYVDGVEVHNAKTKPREEQFNSTFRVVSVLTVVHQDWLNGKEYKCKVSNKGLPAPIEKTISKTKGQPREPQVYTLPPSREEMTKNQVSLTCLVKGFYPSDIAVEWESNGQPENNYKTTPPMLDSDGSFFLYSKLTVDKSRWQQGNVFSCSVMHEALHNHYTQKSLSLSPGK
light: DIQMTQSPSSLSASVGDRVTITCKSSQSLLASGNQNNYLAWYQQKPGKAPKMLIIWASTRVSGVPSRFSGSGSGTDFTLTISSLQPEDFATYYCQQSYSRPYTFGQGTKVEIKRTVAAPSVFIFPPSDEQLKSGTASVVCLLNNFYPREAKVQWKVDNALQSGNSQESVTEQDSKDSTYSLSSTLTLSKADYEKHKVYACEVTHQGLSSPVTKSFNRGEC

Tests used:
HCC827 ER15 cells = conditions: HCC827 ER15, 72 hours, L3-1Y 0.14 μg/ml, Erlotinib 10 nm
Description: HCC827 ER15, which expresses c-Met at a high level but Cbl at a relatively low level was used in assay for the apoptotic effect of a combination dosage of an anti-c-Met antibody and an EGFR antagonist.
Then, cell viability was measured in the same manner as in Example 1.4.

EBC-1 tumor = assay: Tumor xenograft model, EBC-1; format: in vivo, BALB/c nude mice; conditions: EBC-1 xenograft, 5 mg/kg I.V. once/week, 28th day
Description: (§1) For use in examining in vivo effects of anti-c-Met antibody on tumor growth, male BALB/c nude mice, 5˜6 weeks old, were xenografted with a tumor (all experiments were carried out in Pharmalegacy, China). For at least one week before the transplantation, the mice were acclimated.
(§2) Then, the mice were anesthetized with 1-2% isofuran and xenografted subcutaneously in the right flank with 5×10^6 cells of EBC-1 or HS746T. Seven days after the grafting, the tumors measured 50 mm3 or greater on average. The mice were divided into the following three groups: 5D5 (5 mg/kg I.V. once/week) treated, L3-1Y (5 mg/kg I.V. once/week) treated, and vehicle (PBS 0.2 ml I.V. once/week) treated (control). Each group was composed of 15 mice.
(§3) Over a total of five weeks, volumes and weights of the tumors were measured […]. Tumor volume (V) was calculated according to the following formula: V (mm3)={Long Axis Length (mm)×(Small Axis Length (mm))2}/2.
(§4) L3-1Y (1) is an antibody based on hIgG1 with the Th7 hinge (usually referred to just as L3-1Y) while L3-1Y (2) contains the same epitope but has the hIgG2 backbone. […] Tumor suppression of each of the antibodies was expressed as percentages of volume reduction compared to the tumor volume on the 28th day of the vehicle-treated group (0%) in Table 3 for EBC-1 and Table 4 for HS746T.

HS746T tumor = assay: Tumor xenograft model, HS746T; format: in vivo, BALB/c nude mice; conditions: 5 mg/kg I.V. once/week, 28th day
Description: as §1, §2, §3, §4

Row | Molecule | cell viability as percentage of untreated control (HCC827 ER15 cells) | At d28:TV; tumor suppression as percentage of volume reduction compared to vehicle-treated group (EBC-1 tumor) [%] | At d28:TV; tumor suppression as percentage of volume reduction compared to vehicle-treated group (HS746T tumor)
1 | C#Cc1cccc(Nc2ncnc3cc(OCCOC)c(OCCOC)cc23)c1 [Erlotinib] | almost no apoptotic effects | – | –
2 | B1 | – | 87.0 | Regression
